Results on ten molecules are retold here after patent publication US20180289766A1 (HONG KONG BAPTIST UNIVERSITY, published 2018).

To fix the notation:
T1: human galanin receptor 3 (hGalR3) (human, UniProt O60755 1-368)
T1 sequence (looked up): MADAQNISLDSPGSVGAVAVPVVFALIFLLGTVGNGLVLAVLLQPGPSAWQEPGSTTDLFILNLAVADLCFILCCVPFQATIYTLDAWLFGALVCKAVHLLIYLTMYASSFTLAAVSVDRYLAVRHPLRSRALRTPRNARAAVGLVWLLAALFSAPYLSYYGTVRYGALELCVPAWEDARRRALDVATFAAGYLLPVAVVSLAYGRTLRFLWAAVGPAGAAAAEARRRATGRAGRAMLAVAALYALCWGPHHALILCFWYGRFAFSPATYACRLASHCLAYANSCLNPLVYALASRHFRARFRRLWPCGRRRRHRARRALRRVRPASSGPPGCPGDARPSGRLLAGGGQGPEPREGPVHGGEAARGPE

T2: human galanin receptor 1 (hGalR1) (human, UniProt P47211 1-349)
T2 sequence (looked up): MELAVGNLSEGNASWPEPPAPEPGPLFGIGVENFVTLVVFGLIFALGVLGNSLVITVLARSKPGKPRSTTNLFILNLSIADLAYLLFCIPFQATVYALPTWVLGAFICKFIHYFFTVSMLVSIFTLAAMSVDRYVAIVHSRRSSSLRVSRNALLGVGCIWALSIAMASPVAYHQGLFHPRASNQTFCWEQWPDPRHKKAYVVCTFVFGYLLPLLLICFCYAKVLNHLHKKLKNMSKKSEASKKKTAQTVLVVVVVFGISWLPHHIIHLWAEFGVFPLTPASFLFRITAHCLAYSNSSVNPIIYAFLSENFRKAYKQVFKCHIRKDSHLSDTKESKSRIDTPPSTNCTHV

T3: human galanin receptor 2 (hGalR2) (human, UniProt O43603 1-387)
T3 sequence (looked up): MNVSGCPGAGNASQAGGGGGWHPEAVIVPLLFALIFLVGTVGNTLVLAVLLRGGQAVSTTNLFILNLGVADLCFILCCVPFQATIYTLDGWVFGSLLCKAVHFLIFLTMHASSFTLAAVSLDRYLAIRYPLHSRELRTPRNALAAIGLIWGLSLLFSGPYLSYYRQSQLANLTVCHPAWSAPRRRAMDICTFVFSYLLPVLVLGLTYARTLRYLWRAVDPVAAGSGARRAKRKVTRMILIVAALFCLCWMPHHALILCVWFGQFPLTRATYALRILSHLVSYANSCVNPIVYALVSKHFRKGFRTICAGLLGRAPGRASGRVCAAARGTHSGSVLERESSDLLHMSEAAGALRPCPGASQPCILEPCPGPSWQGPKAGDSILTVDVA

B1: LH201 (peptide)
peptide: CWTLNSAGYLLGCHAV-NH2
modifications: disulfide 1-13; N-terminus assumed
SMILES: CC(C)C[C@@H]1NC(=O)[C@H](CC(C)C)NC(=O)[C@H](Cc2ccc(O)cc2)NC(=O)CNC(=O)[C@H](C)NC(=O)[C@H](CO)NC(=O)[C@H](CC(N)=O)NC(=O)[C@H](CC(C)C)NC(=O)[C@H]([C@@H](C)O)NC(=O)[C@H](Cc2c[nH]c3ccccc23)NC(=O)[C@@H](N)CSSC[C@@H](C(=O)N[C@@H](Cc2c[nH]cn2)C(=O)N[C@@H](C)C(=O)N[C@H](C(N)=O)C(C)C)NC(=O)CNC1=O
B2: LH101 (peptide)
peptide: CWTPQAMLYLKGCQ-NH2
modifications: disulfide 1-13; N-terminus assumed
SMILES: CSCC[C@@H]1NC(=O)[C@H](C)NC(=O)[C@H](CCC(N)=O)NC(=O)[C@@H]2CCCN2C(=O)[C@H]([C@@H](C)O)NC(=O)[C@H](Cc2c[nH]c3ccccc23)NC(=O)[C@@H](N)CSSC[C@@H](C(=O)N[C@@H](CCC(N)=O)C(N)=O)NC(=O)CNC(=O)[C@H](CCCCN)NC(=O)[C@H](CC(C)C)NC(=O)[C@H](Cc2ccc(O)cc2)NC(=O)[C@H](CC(C)C)NC1=O
B3: LH102 (peptide)
peptide: NWTCQAMLYLKGCQ-NH2
modifications: disulfide 4-13; N-terminus assumed
SMILES: CSCC[C@@H]1NC(=O)[C@H](C)NC(=O)[C@H](CCC(N)=O)NC(=O)[C@@H](NC(=O)[C@@H](NC(=O)[C@H](Cc2c[nH]c3ccccc23)NC(=O)[C@@H](N)CC(N)=O)[C@@H](C)O)CSSC[C@@H](C(=O)N[C@@H](CCC(N)=O)C(N)=O)NC(=O)CNC(=O)[C@H](CCCCN)NC(=O)[C@H](CC(C)C)NC(=O)[C@H](Cc2ccc(O)cc2)NC(=O)[C@H](CC(C)C)NC1=O
B4: LH101 (Ac) (peptide)
peptide: Ac-CWTPQAMLYLKGCQ-NH2
modifications: disulfide 1-13
SMILES: CSCC[C@@H]1NC(=O)[C@H](C)NC(=O)[C@H](CCC(N)=O)NC(=O)[C@@H]2CCCN2C(=O)[C@H]([C@@H](C)O)NC(=O)[C@H](Cc2c[nH]c3ccccc23)NC(=O)[C@@H](NC(C)=O)CSSC[C@@H](C(=O)N[C@@H](CCC(N)=O)C(N)=O)NC(=O)CNC(=O)[C@H](CCCCN)NC(=O)[C@H](CC(C)C)NC(=O)[C@H](Cc2ccc(O)cc2)NC(=O)[C@H](CC(C)C)NC1=O

Positions of bridges follow the written chain, without caps; N, C: chain ends. No end group written: not given here.

For one assay, the target named is T1, human galanin receptor 3 (hGalR3). The assay is described as follows: cell-based or functional assay.
Regarding GWTLNSAGYLLGPHAV-NH2 [human galanin (1-16), hGAL (1-16)], the “EC50, receptor activation (SRE-Luc assay)” value (“EC50, receptor activation” for short) was above 10000 nM and the “Emax, receptor activation (SRE-Luc assay)” value (shortened to “Emax, receptor activation”) is 0.45 relative to hSPX Emax.

In the case of B1, the “EC50, receptor activation” value is above 10000 nM and the “Emax, receptor activation” value is 0.55 relative to hSPX Emax.

Consider Ac-CWTLNSAGYLLGCHAV-NH2 (disulfide 1-13) [LH201 (Ac)], for which the “Emax, receptor activation” value was 0.2 relative to hSPX Emax.

With B2, the “EC50, receptor activation” value was 1560 nM and the “Emax, receptor activation” value was 1.04 relative to hSPX Emax.

With NWTPQAMLYLKGCQ-NH2 [hSPX (C13)], the “EC50, receptor activation” value was 630 nM and the “Emax, receptor activation” value was 0.88 relative to hSPX Emax.

For the molecule B3, the “EC50, receptor activation” value was 1500 nM and the “Emax, receptor activation” value is 0.87 relative to hSPX Emax.

For the molecule CWTPQAMLYLKGAQ-NH2 [hSPX (C1)], the “EC50, receptor activation” value turned out to be 360 nM and the “Emax, receptor activation” value is 1 relative to hSPX Emax.

Turning to GWTLNSAGYLLGPHAVGNHRSFSDKNGLTS-NH2 [human galanin (hGAL)], the “Emax, receptor activation” value is 0.68 relative to hSPX Emax.

In the case of B4, the “EC50, receptor activation” value stood at 390 nM and the “Emax, receptor activation” value was 1 relative to hSPX Emax.

For NWTCQAMLYLKGAQ-NH2 [hSPX (C4)], the “EC50, receptor activation” value amounted to 770 nM and the “Emax, receptor activation” value was 0.91 relative to hSPX Emax.

The next assay addresses T2, human galanin receptor 1 (hGalR1). In words: cell-based or functional assay.
Consider B1, for which the “EC50, receptor activation” value was above 10000 nM and the “Emax, receptor activation” value was 0.35 relative to hGAL Emax.

As for Ac-CWTLNSAGYLLGCHAV-NH2 (disulfide 1-13) [LH201 (Ac)], the “Emax, receptor activation” value was 0.22 relative to hGAL Emax.

A further assay has as its target T3, human galanin receptor 2 (hGalR2). In words: cell-based or functional assay.
On to GWTLNSAGYLLGPHAV-NH2 [human galanin (1-16), hGAL (1-16)], for which the “EC50, receptor activation” value was 220 nM and the “Emax, receptor activation” value was 1.02 relative to hSPX Emax.

Take B1: the “EC50, receptor activation” value was 120 nM and the “Emax, receptor activation” value was 1 relative to hSPX Emax.

Turning to Ac-CWTLNSAGYLLGCHAV-NH2 (disulfide 1-13) [LH201 (Ac)], the “EC50, receptor activation” value was found to be 480 nM and the “Emax, receptor activation” value is 1.16 relative to hSPX Emax.

As for B2, the “EC50, receptor activation” value amounted to 1190 nM and the “Emax, receptor activation” value was 1.09 relative to hSPX Emax.

Consider NWTPQAMLYLKGCQ-NH2 [hSPX (C13)], for which the “EC50, receptor activation” value was 370 nM and the “Emax, receptor activation” value was 0.87 relative to hSPX Emax.

For B3, the “EC50, receptor activation” value turned out to be 1430 nM and the “Emax, receptor activation” value was 1.08 relative to hSPX Emax.

For CWTPQAMLYLKGAQ-NH2 [hSPX (C1)], the “EC50, receptor activation” value worked out at 510 nM and the “Emax, receptor activation” value is 1.05 relative to hSPX Emax.

For the molecule B4, the “EC50, receptor activation” value came to 380 nM and the “Emax, receptor activation” value was 0.97 relative to hSPX Emax.

Consider NWTCQAMLYLKGAQ-NH2 [hSPX (C4)], for which the “EC50, receptor activation” value was 470 nM and the “Emax, receptor activation” value was 0.98 relative to hSPX Emax.
